Reference: patent US8642834B2, “Methods for the identification of agents that inhibit mesenchymal-like tumor cells or their formation” (OSI Pharmaceuticals, LLC, priority 2009, dated 2014)

Experiments:
Assay type in all cases: cell-based, human
CFPAC-1 cells [1] = test: Cell morphology by light microscopy; conditions: treated 7 days; versus untreated cells that formed colonies
Method: The CFPAC1 cell line was cultured in DMEM media (Gibco #11960) supplemented with 10% FBS (Sigma), 2 mM L Glutamine (Gibco), at 37° C., 5% CO2. For 7 day treatments, cells were seeded on tissue culture plastic in complete growth media and allowed to attach overnight at cell densities that would provide approximately 60-80% confluence at end of experiment. Ligand and/or inhibitor was added the following day (Day 0) in complete growth media and incubated at 37° C., 5% CO2. Ligand source and concentrations used are as follows: [1] From R&D systems, SDF-1α (stromal derived factor-1 alpha) at 100 ng/ml, TRANCE (TNF-related activation induced cytokine) at 50 ng/ml, FGF1 (fibroblast growth factor acidic) at 10 ng/ml, FGF2 (fibroblast growth factor basic) at 10 ng/ml, BMP4 (bone morphogenetic protein 4) at 100 ng/ml, BMP7 (bone morphogenetic protein 7) at 100 ng/ml, IGF2 (insulin-like growth factor 2) at 100 ng/ml, OSM (Oncostatin M) at 100 ng/ml, NRG1 (Neuregulin-1) at 50 ng/ml, PDGFaa (Platelet derived growth factor a) at 50 ng/ml, PDGFbb (platelet derive growth factor b) at 30 ng/ml, Ang2 (Angiopoeitin 2) at 400 ng/ml, amphiregulin at 100 ng/ml, HMGB 1 (Human high-mobility group box 1 protein) at 50 ng/ml; [2] […]

CFPAC1 cells [2] = test: Doubling time after ligand treatment; conditions: after 7 day ligand treatment, versus untreated
Method: Cells were plated and treated with ligand for 7 days. On day 7, cells were counted and re-plated on 6 cm cell culture dishes. On days 3, 5, 7, 10 and 12, cells were trypsinized and counted to determine the total number of cells in the dish, in duplicate. Doubling time was calculated using the multiple time point method on the website www.doubling-time.com.

CFPAC-1 cells [3] = test: MET/EMT reversion experiment (ligand withdrawal); conditions: ligand 14 days, then removed; morphology and E-cadherin/vimentin immunoblot
Method: Cells were cultured in complete medium with and without ligand for 14 days, during which time the media and ligand treatment was replaced every 3-4 days. 3 Days prior to the first time point (Day 14), cells were trypsinised, counted and seeded into plastic 35 mm dishes at appropriate seeding densities for the first 3 collection time points. 3 Days prior to the last of the 3 collection time points, the procedure was repeated for the second 3 collection time points, and so on until all time points were collected. Ligand was removed from all cultures at Day 14. At the time of harvest, cells were harvested as described in the western blotting section above. All samples were micro-centrifuged and stored at −80° C. until the end of the experiment, at which time all samples were processed for western blotting.

CFPAC1 cells [4] = test: Transcriptional changes to EMT genes, qPCR
Method: The CFPAC1 cell line was cultured in DMEM media (Gibco #11960) supplemented with 10% FBS (Sigma), 2 mM L Glutamine (Gibco), at 37° C., 5% CO2. For 7 day treatments, cells were seeded on tissue culture plastic in complete growth media and allowed to attach overnight at cell densities that would provide approximately 60-80% confluence at end of experiment. Ligand and/or inhibitor was added the following day (Day 0) in complete growth media and incubated at 37° C., 5% CO2. Ligand source and concentrations used are as follows: [1] From R&D systems, SDF-1α (stromal derived factor-1 alpha) at 100 ng/ml, TRANCE (TNF-related activation induced cytokine) at 50 ng/ml, FGF1 (fibroblast growth factor acidic) at 10 ng/ml, FGF2 (fibroblast growth factor basic) at 10 ng/ml, BMP4 (bone morphogenetic protein 4) at 100 ng/ml, BMP7 (bone morphogenetic protein 7) at 100 ng/ml, IGF2 (insulin-like growth factor 2) at 100 ng/ml, OSM (Oncostatin M) at 100 ng/ml, NRG1 (Neuregulin-1) at 50 ng/ml, PDGFaa (Platelet derived growth factor a) at 50 ng/ml, PDGFbb (platelet derive growth factor b) at 30 ng/ml, Ang2 (Angiopoeitin 2) at 400 ng/ml, amphiregulin at 100 ng/ml, HMGB 1 (Human high-mobility group box 1 protein) at 50 ng/ml; [2] From Genscript, LIF (Leukemia inhibitory factor) at 20 ng/ml, GM-CSF (Granulocyte macrophage colony stimulating factor) at 25 ng/ml, M-CSF (Macrophage colony stimulating factor) at 50 ng/ml; [3] From Anaspec, PAR1 (Protease activated receptor 1 agonist) at 100 μM; PAR2 (Protease activated receptor 2 agonist; peptide SLIGKV-NH2, Cat. No. 60217-1) at 100 μM; PAR4 (Protease activated receptor […] agonist; peptide AYPGKF-NH2, Cat. No. 60218-1) at 100 μM; [4] From Peprotech, HGF (Hepatocyte Growth Factor) at 100 ng/ml; IL-31 (Interleukin-31) at 50 ng/ml, IL-33 (Interleukin-33) at 50 ng/ml, IL1-a (Interleukin-1 alpha) at 10 ng/ml, CTGF (Connective tissue growth factor) at 20 ng/ml, WISP1 (Wnt-1 inducible signaling pathway protein) at 20 ng/ml, PTHrP ([…] hormone-related protein) at 50 ng/ml, MCP1 (monocyte chemotactic protein-1) at 50 ng/ml; and [5] from Sigma, Fulvestrant at 1 μM. Fresh medium containing ligand and/or inhibitor was added 3-4 days after initial dose, and at Day 7 cells were harvested for western blot analysis.
Cells were plated and treated with ligand for one or 7 days. At the time of harvest, cells were trypsinized and snap frozen for later use. Total RNA was isolated using RNAqueous-4 PCR Kit (Ambion, AM1914). For qPCR on tumor material, the tumor samples were homogenized using a small tissue homogenizer (Ultra-Turrax T8 from IKA-Werke) in 175ul RNA lysis buffer. Homogenization was for 1 minute on ice. RNA was isolated using the SV Total RNA Isolation System (Promega Cat #Z3100) according to the manufactures instructions. Samples were DNase treated using the Turbo DNA-Free kit (Ambion, AM1907) and reverse transcribed using Superscript III (Invitrogen, 18080-044) for qPCR analysis. Taqman primers and Locked-Nucleic Acid probes were designed using ProbeFinder software (Universal Probe library, Roche). For mRNA analysis, real time PCR was performed using the ABI 7900HT series PCR machine. Thermocycle conditions were as follows: 50° C. for 2 minutes, 95° C. for 10 minutes, 95° C. for 15 seconds, 50° C. for 10 seconds, 60° C. for 1 minute. Data was collected over 45 cycles and then normalized to GAPDH and further normalized to the untreated control sample.

B1: OSM: Oncostatin M from R&D systems, used at 100 ng/ml (protein, UniProt P13725 26-221, looked up)
Oncostatin-M: AAIGSCSKEYRVLLGQLQKQTDLMQDTSRLLDPYIRIQGLDVPKLREHCRERPGAFPSEETLRGLGRRGFLQTLNATLGCVLHRLADLEQRLPKAQDLERSGLNIEDLEKLQMARPNILGLRNNIYCMAQLLDNSDTAEPTKAGRGASQPPTPTPASDAFQRKLEGCRFLHGYHRFMHSVGRVFSKWGESPNRSRR
Cell morphology (CFPAC-1 cells [1]): less compact with more elongated cell morphology | Increase of doubling time (CFPAC1 cells [2]): approximately 50% | Reversal of EMT upon withdrawal of ligand (CFPAC-1 cells [3]): can be reversed | ACTN1 mRNA fold change (CFPAC1 cells [4]; ligand 1 Day): NC (Only changes greater than 3 fold are reported. NC indicates no change.) | CDH1 mRNA fold change (CFPAC1 cells [4]; ligand 1 Day): NC (Only changes greater than 3 fold are reported. NC indicates no change.) | CDH2 mRNA fold change (CFPAC1 cells [4]; ligand 1 Day): NC (Only changes greater than 3 fold are reported. NC indicates no change.) | ITGB3 mRNA fold change (CFPAC1 cells [4]; ligand 1 Day): 31.39 fold | MMP7 mRNA fold change (CFPAC1 cells [4]; ligand 1 Day): NC (Only changes greater than 3 fold are reported. NC indicates no change.) | MTA3 mRNA fold change (CFPAC1 cells [4]; ligand 1 Day): NC (Only changes greater than 3 fold are reported. NC indicates no change.) | PLAUR mRNA fold change (CFPAC1 cells [4]; ligand 1 Day): NC (Only changes greater than 3 fold are reported. NC indicates no change.) | SNAI1 mRNA fold change (CFPAC1 cells [4]; ligand 1 Day): NC (Only changes greater than 3 fold are reported. NC indicates no change.) | SNAI2 mRNA fold change (CFPAC1 cells [4]; ligand 1 Day): NC (Only changes greater than 3 fold are reported. NC indicates no change.) | SPARC mRNA fold change (CFPAC1 cells [4]; ligand 1 Day): NC (Only changes greater than 3 fold are reported. NC indicates no change.) | TWIST1 mRNA fold change (CFPAC1 cells [4]; ligand 1 Day): NC (Only changes greater than 3 fold are reported. NC indicates no change.) | VIM mRNA fold change (CFPAC1 cells [4]; ligand 1 Day): NC (Only changes greater than 3 fold are reported. NC indicates no change.) | ZEB1 mRNA fold change (CFPAC1 cells [4]; ligand 1 Day): NC (Only changes greater than 3 fold are reported. NC indicates no change.) | ZEB2 mRNA fold change (CFPAC1 cells [4]; ligand 1 Day): 3.52 fold | ACTN1 mRNA fold change (CFPAC1 cells [4]; ligand 7 Day): NC (Only changes greater than 3 fold are reported. NC indicates no change.) | CDH1 mRNA fold change (CFPAC1 cells [4]; ligand 7 Day): −3.06 fold | CDH2 mRNA fold change (CFPAC1 cells [4]; ligand 7 Day): NC (Only changes greater than 3 fold are reported. NC indicates no change.) | ITGB3 mRNA fold change (CFPAC1 cells [4]; ligand 7 Day): 106.2 fold | MMP7 mRNA fold change (CFPAC1 cells [4]; ligand 7 Day): NC (Only changes greater than 3 fold are reported. NC indicates no change.) | MTA3 mRNA fold change (CFPAC1 cells [4]; ligand 7 Day): NC (Only changes greater than 3 fold are reported. NC indicates no change.) | PLAUR mRNA fold change (CFPAC1 cells [4]; ligand 7 Day): NC (Only changes greater than 3 fold are reported. NC indicates no change.) | SNAI1 mRNA fold change (CFPAC1 cells [4]; ligand 7 Day): NC (Only changes greater than 3 fold are reported. NC indicates no change.) | SNAI2 mRNA fold change (CFPAC1 cells [4]; ligand 7 Day): NC (Only changes greater than 3 fold are reported. NC indicates no change.) | SPARC mRNA fold change (CFPAC1 cells [4]; ligand 7 Day): −33 fold | TWIST1 mRNA fold change (CFPAC1 cells [4]; ligand 7 Day): 3.3 fold | VIM mRNA fold change (CFPAC1 cells [4]; ligand 7 Day): NC (Only changes greater than 3 fold are reported. NC indicates no change.) | ZEB1 mRNA fold change (CFPAC1 cells [4]; ligand 7 Day): 3.00 fold | ZEB2 mRNA fold change (CFPAC1 cells [4]; ligand 7 Day): 13.7 fold
